{"source": "paper doi:10.1101/2022.11.07.515376", "about": "(bioRxiv, 2022)", "key": {"SEC": {"target": "the molecule itself", "assay": "SEC"}, "ITC": {"target": "the molecule itself", "assay": "ITC"}, "AUC": {"target": "the molecule itself", "assay": "AUC"}}}
{"protein": "MSMEG_2027, full-length (as used in the solution studies) (enzyme) MTDAELSPTDWVREQTERILEQGTTDGVHVLDRPIVLFTTTGAKSGKKRYVPLMRVEENGKYAMVASKGGDPKHPSWYFNVKANPTVSVQDGDKVLPDRTARELEGEEREHWWKLAVEAYPPYAEYQTKTDRLIPVFIVE", "values": [{"measurement": "stoichiometry N", "setting": "SEC", "result": 2}, {"measurement": "Kd", "setting": "ITC", "result": "~1.2", "unit": "µM"}, {"measurement": "Kd", "setting": "AUC", "result": "~8", "unit": "µM"}]}
